Results: patent publication US20250134019A1, “TRIKETONE DIOXYGENASE VARIANTS FOR HERBICIDE TOLERANCE” (Monsanto Technology LLC, priority 2022, published 2025)
Changes are numbered by the printed parent chain. Names may count otherwise.

Tests used:
Assay type in all cases: in vivo
[1] = system: transgenic soybean plants; assay: Mesotrione injury of R0 transgenic soybean plants expressing TDO homologs; details: 210 g a.i./ha mesotrione at V3-V4, rated 7-14 days after treatment, mean of all tested events
Procedure: Plant expression vectors comprising the selected TDO homologs under the control of one of two constitutive promoters were transformed into soybean via an Agrobacterium tumefaciens-mediated method. Following Agrobacterium transformation, R0 transgenic soybean plants containing a single copy of the transgene were identified through molecular characterization and segregation analysis. Transgenic and wild-type (control) plants were grown in 6-inch pots filled with BM7 soilless mix in a growth chamber under the conditions of 28° C./23° C. (light/dark) and a 16 hr light/8 hr dark photoperiod. Plants were fertilized with 15-5-15 liquid fertilizer at the V3-V4 growth stage and treated with 210 g a.i./ha mesotrione (1X=105 g a.i./ha; Callisto®, Syngenta in 1% crop oil). Plants were visually rated 7-14 days after treatment on a scale of 0% to 100%, with 0%=no injury and 100%=plant death, relative to the wild-type controls. The results summarized in Table 2 represent the mean of all tested events (10-15) for each construct.

[2] = system: transgenic soybean plants; assay: Response of R0 soybean plants transformed with Round 2 TDO variants to mesotrione; details: R0 transgenic soybean sprayed with mesotrione
From the text: The next set of experiments was focused on determining if the balance between improved enzyme stability could outweigh a reduction in activity observed at optimal temperatures in soybean plants. […] To test this hypothesis, the eight variants from Round 2 biochemical analysis described in the preceding paragraph were transformed into soybean through Agrobacterium-mediated transformation, along with three controls. One of the controls (TDO_9) was a variant from the high-throughput screens that had poor activity. Two other controls were the D08 variant and the Os.TDO. R0 transgenic soybean plants were sprayed with the mesotrione herbicide to screen for herbicide tolerance. […] These included the Os.TDO control, the D08 variant and one Round 2 variant. The plants were scored for percent injury as described in the previous examples.

transgenic cotton plants = assay: Mesotrione treatment of cotton plants expressing TDO variants, crop injury; details: for Crop Injury (%), 210 g/ha (2X) Mesotrione / Crop Injury (%), 840 g/ha (8X) Mesotrione: R2 cotton sprayed at V3
Procedure: Cotton is a crop of interest that is often exposed to high temperature growing conditions and thus, selected TDO variants were tested in cotton. Three TDO variants, D08, TDO_6, and TDO_8 were transformed into cotton (along with the Os.TDO control) using similar expression elements in single-cassette vectors or as part of multi-cassette vectors. R2 transgenic cotton plants were then screened for tolerance to mesotrione. Sixteen plants from two events each per construct were sprayed with two rates (2X and 8X) of mesotrione at V3 stage under normal (80° F.) and hot (100° F.) growing conditions. In addition, the effect of heat treatment on TDO accumulation in cotton plants were measured by ELISA. Cotton plants were planted and grown under normal greenhouse conditions (80° F. day/70° F. night) until V3 growth stage. Half of the plants were then moved to a higher temperature growth chamber (100° F. day/82° F. night) for the heat treatment, whereas the remaining half of the plants stayed in the same greenhouse (80° F. day/70° F. night). At day 3 after the plants were placed under different temperature conditions, leaf samples were collected for TDO protein measurement. The plants in 100° F. growth chamber and in 80° F. greenhouse were both sprayed with 2X mesotrione (210 g a.i./ha). Leaf samples were collected again 7 days after mesotrione treatment (DAT: Days After Treatment) for protein assay. Table 5 compares protein levels of the TDO variants in transgenic cotton plants grown under the two tested conditions. The protein levels for the TDO variants were measured at three time points for plants: 1) just before entering the high temperature treatment, 2) three days following placement into control (normal growth temperature) or high temperature (100° F.), and 3) 7 days after a 2X mesotrione spray.

[3] = promoter Constitutive 2, 3' UTR B

B1: ANDge.TDO: TDO homolog from Andropogon gerardii, SEQ ID NO:12 (protein, listed as Andropogon gerardii)
chain: MASSSWRVPTPVQELAAGVVEPPSQFVLQEQDRPESLLLAADMPEPIPVIDLSRLSAADEASKLQSALQTWGLFLVTNHGIEASLMDEVMAASRDFFHQPLQEKQKYSNLIGGKRFQMEGYGNDMVTSQDQILDWQDRLQLRVEPEDERNLAYWPKHPDSFRDLLHEYASKTKKVRDNLLRAMGKILELGDDYFISQIGEKASAVARFNYYPPCPRPELVFGIKPHSDGGAVTILLVDNDVGGLQVQKDGIWYTVPSKPHTLVVNLADSMEIMNNGIFKSPVHRVVTNAEKERLSLAMFYGVEGQKMLEPAAGLLGEDRPARYRKIKAADYIVGLRQGIAKGQRFIETLKI
**Q.** For B1, which “% Injury” value [1, 3] is on record?
**A.** The value was 55%.

B2: TDO_6: Os.TDO variant, SEQ ID NO:38, G242S-P256E relative to D08 (protein)
chain: MADESWRAPALVQELAAKGVEEPPSRYLLREQDRPDVKLVAAELPEPIPVVDLGRLDGAEEATKLRVALQNWGFFLLTNHGIEASLMDDVMNLSREFFNQPIERKQKFSNLIDGKHFQIEGYGTDRVVTQDQVLDWSDRLHLRVEPKEEQDLAFWPDHPESFRDVLHKYASGCKRIRDDIIQAMAKLLELDEDYFLDRFNEAPTFARFNYYPPCPRPDLVFGIRPHSDGGLLTILLVDKDVSGLQVQRDGKWSNVEATPHTLLINLGDTMEVMSNGIFKSPVHRVVTNAEKERISLAMLYSVNDEKDIEPAAGLLDENRPARYRKVSVEEFRAGIFGKFSRGERYIDSLRI
modifications: TDO variant sequence
**Q.** How did the “R0 % Injury” value [2] turn out when B2 was run?
**A.** The value was 31%.

**Q.** And the “Crop Injury (%), 210 g/ha (2X) Mesotrione” value (from here on “Crop Injury (%), 210 g/ha”) (transgenic cotton plants; Under 80° F.)?
**A.** Its value is 0%.

**Q.** What about the “Crop Injury (%), 840 g/ha (8X) Mesotrione” value (“Crop Injury (%), 840 g/ha” for short) (transgenic cotton plants; Under 80° F.) of the same molecule?
**A.** The value was 0%.

**Q.** What about the “Crop Injury (%), 210 g/ha” value (transgenic cotton plants; Under 100° F.) of the same molecule?
**A.** Its value is 0%.

**Q.** What about the “Crop Injury (%), 840 g/ha” value (transgenic cotton plants; Under 100° F.) of the same molecule?
**A.** Its value is 0%.

**Q.** What about the “injury rates relative to Os.TDO controls” value (transgenic cotton plants; cotton at the higher temperature) of the same molecule?
**A.** Its value is “trending even lower than the Os.TDO controls”.

B3: TDO_5: Os.TDO variant, SEQ ID NO:36, E120Q-G242S relative to D08 (protein)
chain: B2 chain with E120Q, E256P
modifications: TDO variant sequence
**Q.** For B3, which “R0 % Injury” value [2] is on record?
**A.** Its value is 30%.

B4: TDO_8: Os.TDO variant, SEQ ID NO:42, Q32K-I48L-V133I-G242S-P256E relative to D08 (protein)
chain: B2 chain with Q32K, I48L, V133I
modifications: TDO variant sequence
**Q.** B4 was tested. Which “R0 % Injury” value [2] did it give?
**A.** Its value is 31%.

**Q.** What about the “Crop Injury (%), 210 g/ha” value (transgenic cotton plants; Under 80° F.) of the same molecule?
**A.** Its value is 0.25%.

**Q.** And the “Crop Injury (%), 840 g/ha” value (transgenic cotton plants; Under 80° F.)?
**A.** Its value is 0%.

**Q.** What about the “Crop Injury (%), 210 g/ha” value (transgenic cotton plants; Under 100° F.) of the same molecule?
**A.** The value was 0.27%.

**Q.** And the “Crop Injury (%), 840 g/ha” value (transgenic cotton plants; Under 100° F.)?
**A.** Its value is 0%.

B5: TDO_1: Os.TDO variant, SEQ ID NO:28, P35S-H116N relative to D08 (protein)
chain: B2 chain with P35S, H116N, S242G, E256P
modifications: TDO variant sequence
**Q.** With B5 as the molecule, how does the “R0 % Injury” value [2] read?
**A.** The value was 30%.

B6: TDO_3: Os.TDO variant, SEQ ID NO:32, P35S-G242S relative to D08 (protein)
chain: B2 chain with P35S, E256P
modifications: TDO variant sequence
**Q.** How did the “R0 % Injury” value [2] turn out when B6 was run?
**A.** Its value is 35%.

B7: TDO_7: Os.TDO variant, SEQ ID NO:40, G242S-S274C relative to D08 (protein)
chain: B2 chain with E256P, S274C
modifications: TDO variant sequence
**Q.** How did the “R0 % Injury” value [2] turn out when B7 was run?
**A.** Its value is 32%.

B8: TDO_4: Os.TDO variant, SEQ ID NO:34, H116N-G242S relative to D08 (protein)
chain: B2 chain with H116N, E256P
modifications: TDO variant sequence
**Q.** For B8, which “R0 % Injury” value [2] is on record?
**A.** Its value is 32%.

B9: Cl.Col.TDO1: TDO homolog from Coix lacryma-jobi, SEQ ID NO:14 (protein)
chain: MASSSWKVPTPVQELAATLEEPPSRYVLREKDRPSSPLVADDMPEPLPVINLSRLSEDAAEAAKLEAALQSWGLVLVTNHGIETSLMDDVMDTSREFFNQTLEEKQKYSNLIEGKRFQMEGYGNDRVSTEHQILNWNDRLHLKVAPDDERNYTHWPKHPESFRDVLHEYTLKTKKIRDNICSNGQDIGARFNYYPPCPRPDLVNGVQPHSDAGVLTILLVDKEIRGLQVQRDGIWYNVPRKPYTLLINLGDVMEIMSNGIFKSPVHRVVTNTEKERISLAMFYGVDAENVLEPAAGLLDEKRPARYRKVEITDFVAGVHEHFSRGTRFIESLKI
modifications: Coix lacryma-jobi
**Q.** How did the “% Injury” value [1, 3] turn out when B9 was run?
**A.** Its value is 61%.

B10: Si.TDO: TDO homolog from Setaria italica, SEQ ID NO:8 (protein, listed as Setaria italica)
chain: MANESWKIPMLVQELAAKVQEPPSRYVQPEQQHPVSLVVGAEKPEAIPVIDLSRLLAADGADEEGSKLRLALQSWGLFLIDNHGIETSLMDDLINASREFFHLPLEEKQKCSNLIDGKHYQVEGYGNDPVASKDQILDWLDRLHLRVEPEDERNLVHWPEHPNSFRALLHKYTLNCKRIKDRILWAMAKSLGLDEDYIVAQFSGKAPSFARFNYYPPCPRPDIVFGAKPHSDGGVLTILLMDKDVGGLQVLRDGVWHNVPTSPHRLLVNIGDFSEIMSNGIFKSPVHRVVTNMGKERISLAMFHGLDPEKEIEPATALLHEKQLARYRKIKAKVYLAGFYEHFCRGTRFIDSEDLREVA
**Q.** Which “% Injury” value ([1]; promoter Constitutive 1, 3' UTR A) does the source give for B10 here?
**A.** Its value is 35%.

B11: Cl.Col.TDO2: TDO homolog from Coix lacryma-jobi, SEQ ID NO:16 (protein)
chain: MASSSWRVPTPVQELAAGVVEPPSQFVLQEQDRPESLLLATDMPEPIPVIDLSRLAAADEASKLRSALQTWGLFLVTNHGIEASLMDDVMAASRDFFYQPLEEKQKYSNLVGGKRFQMEGYGNDMVASQDQVLDWQDRLQLRVEPEDERNLAYWPKHPDSFRDLLHEYASKTKKVRDNVLQAMGKLLELGEDYFISQIGGKASAIARFNYYPPCPRPELVFGIKPHSDGGAVTILLVDNDVGGLQVQKDGIWYTVPSKPHTLVVNLGDSMEILNNGIFKSPVHRVVTNAEKERLSLAMFYGVEGQKVLEPAAALLGEERPARYRKIKAADYIVGLRQGIARGNRFIETLKI
modifications: Coix lacryma-jobi
**Q.** How did the “% Injury” value [1, 3] turn out when B11 was run?
**A.** Its value is 53%.

B12: Ta.TDO: TDO homolog from Triticum aestivum, SEQ ID NO:10 (A4S from codon optimization) (protein, listed as Triticum aestivum)
chain: MASSDESPMVRPTVQELASAGVEEPPRQYVLPEQDRHGDLLAADEFPEPIPLIDLSRLTDADEAERLRAALQTWGFFLATNHGIEGSLMDAMMSVSREFFRQPAEEKQKCSNLVDGNGKDYQVEGYGSDKVVSEDQVLNWSDRLHLRVEPEDERNFAKWPSHPESFRDVLKEYASRTKEIRDLVLRSIAKLLEIDEDYFVNQISNKASGFARFNYYPPCPRPDLVLGLRAHSDGGLLTILFNDDTVGGLQVQRDGRWYNVSAKPHTLLINLADCLEIMNNGIFTSPIHRVVTNIKKDRLSLAVFYAVDAETMLEPAPGLLDDKRPPRYRKMLAKDFVAGLFEHFRQGKRFINTLKI
**Q.** B12 was tested. Which “% Injury” value [1, 3] did it give?
**A.** Its value is 50%.
